This series can be described thus: soluble on expression in E. coli; label from the status in PepcDB or PDB records.
On to “MGSDKIHHHHHHMMPYLAKILLYPVKSLDGVEVEKVGVLASGALQHDREFAIFDERGKFVNGKRHAKIHLLRVQFALFNRTISLQIPGGNSQQVFHLDEERQALEATLSNYFEFAVTLRQNSLMGFPDDTHSPGPTVISTATLTEVASWFPGLSVDEIRRRMRANIEIDGVPAFWEDRLFSEQGDLVSFRVGDVDFFGANPCQRCIVPTRDSYSGEAYPSFQKIFATQRQATLPNWVASSPFNHFYRLSVNTQLPISSAGKILQIGDGVDIFP”, for which the “soluble on expression in E. coli” value was “not soluble”. The same measure for “DMWVYCETQAGDLVDVSKEMLGKARELMNDYNAAYDEDERVVAVLIGAAASDHVEDVIAYGADLVVYHEDDRLDRFRHQPYTEIFCDMARAGGDLAADGREETEWKDYHEPRYTVFPATNNGRDLSALVQGELDSGLASDCSGLYIESAMISNPAKVGTAGDKKEFERVLHMKRPDFSGFEYSTILCIDKPHRDFHPQGASVIPGSFEMPDPDYERDGEVVDYGMDIDDDWFTVEVEEYDRLSGGVD”: “not soluble”; for “MIKNLITQQEGKTLEFKRDLSSPKSLLKSIVAFANTAGGHLIIGVNDERQIIGVEHPLDEEERLCNLIADSISPRLIPSIELVTLNNKTLLVIEVFVSNTGPHWINSEGSTQGIYVRLGSTNRQADQELITELHRRSEGVNFDEMPMPQLSVDDVDITKAQELFSDIKSLNEKNLLTLKLITSHQGKLVPTKGAILLFGKERNTYFPDAWVQCGRFIGKDKSRIFDHVDIYDYLPDAVESIMMFLKKHALRGADFSAVQRKDIWSIPLVMLREAVINALVHTDYSQRGAPIRISFFDDRIEIENPGILLPGLTIEDMRQGISKIRNHVIARVFRELNLIEQWGSGVSRIYSEAIEQKLQEPEIIEIGMRIRFIIYLAQGIPIDSTFDKRDKQLESRLESRLESRLESKLAARVIQVLQNGEAGKIQIARSLGHQTVSGELHKQIKQLLKLEIIEMTIPDKPNSRLQKYRLTNKGIDLINIIQRELAAALEHHHHHH”: “not soluble”; for “MNTPNSSCTILFENLYDNDLALKLFNNRTIVDNILRNVKGDINNRLELRLVNKSFNLAAIHVIRKENRTVVFHKFNRCDRLHKISPCPDCSVHLNSVKLNKKNIFQYARFLKQTMKIMVIKIRIEDSKRVCCMITDVHQVIHKSLIGSDYDKVEEFVGIDQISFSTCIPCEKIAANCKVFGPVQNDMFNAILRLKHHYDVLQVKDMRLYKLMILNKEDPTVVEDFINSNITCSKLTIFLMYMYEKEAFGYSLPREFLDLLIKKWNVKTVEIVPRQDQPIPYYFHCNTDFIVPKAKFYVDYWTQPRSKYTLDGVEIDLQLTKVVEQQIKNRKSLFDNFIANARRIFPSNKITVRFSKEVCQEMMSQGNVEDFISGIILMTQKDAQPNSHISLKLYPEEVDAPLIDSFLRENFEKKFDSWNLETVSDSSANLPAEKCYQFFNQSTNCKIIFYICC”: “not soluble”. The same measure for “MGSDKIHHHHHHMVNSSGLLAKLYNAFNPFEPLPAGDPKYVDCQDVRGDADIEQELGNRMRLADTNTCQLYSGHRGAGKSTELLRLKKYLENREFYVVYFAADEEDIDSEDAQYTDILLACTRRLLKDLKGIASPRPILDWLKGRWEDLKDLAQTPIEFESLGVEAQLTQFAKLTANLRAVPELRQKIRQKIDPYTVTLIQVLNEFLVDAKQHLPNGYKKLAVIVDNLDRMVLVKDAERTNYEEVFLDRSEQLQALDCHLIYTVPISMVYSTRATDLRDIYGDPQILPMIMVKTFEGNVYQPGLEKVKEVIKKRVRQIAPELSLETEIFDSPQTLDRLCLMSGGHVRNLLLLTQDAIGRSEDLPVSEKAVRRAITQARDTYRRAVENHQWCLLAEVSCSKRIINDDLYRSLMYNRCLLEYRYLDDDGEMQRWYDIHPLIQGIPEFKEAVAKLS”: “not soluble”. Turning to “MSLLVMKCSKCSAEAIYYAKYNGLYLCRDHFNEMIEGRVKKEIRKQVEFHGDDVTISVALSGGKDSSVTLFLLHKILGNRKNMKIKAFTVDEGIDGYRPSGLESAKRLCTSLGIDHETISFYDSYGLTLDSIVKTNPVKIPCAYCGPLRRKLINEMADKQDADYVALGLNLDDYSQSILMNVAKGDFDRFIRMSPQTDRKVGLVRRIAPLRTILEKEVVLYAVTNDIPFDSSWCPYYSRAQRNVFREVVNKLSEENPSTKFAILKFFDRVRENITTGHEEVKLKRCKICGAPTERDVCTACSSLQEVNEMMAEHEGHHHHHH”, the “soluble on expression in E. coli” value is “soluble”. With “MGSDKIHHHHHHRVAQCCAIIDRSKIVIGFSDHGLYCIEISRQLLIPVGGEKENKQRCVETVEYDEAEQLLMMIVGPAKDRHVRIVPSAALDGRDLKWIKVNDTKGCHLLAVGTNNPGGRAGFFAVAFKKSVTIFQIDRSEKRHKKWKDLAMPGTPQSIAIFNGRLYVGFSHSFRSWSLVGVDSSPVGSGDASGAVLQHISLVNMEDTSLQFLNQQTSYEAKLIVNVPGSPDEYLLVFNMIGLYVNEMGRRSRLPEVMFPTQAKYFAYHEPYLCVFSENEVDIFNVTLAEWVQTINLRSAKPLSGDGILSTCLCNDSPIFVLLQN” the entry was “not soluble”. The same measure for “MADIVVDGIRATYNIRGESAALLCPPHPLMGGSRFDVRLERIAAELTKRNVSVLRFDYQRPFRSGIGEVEDAKKCVAYLKDRHDKIAVIRYSFGSVVASNVAEYCDAAVYISPLPEINSIYFKDAEIPKLFIIATRDQFVSLEESVKLYEQASKPKEVVKVETDHFYFGKFDFIAKITADFIERQSF”: “soluble”; for “STERRRDELSEEINNLREKVMKQSEENNNLQSQVQKLTEENTTLREQVEPTPEDEDDDIELRGAAAAAAPPPPIEEECPEDLPEKFDGNPDMLAPFMAQCQIFMEKSTRDFSVDRVRVCFVTSMMTGRAARWASAKLERSHYLMHNYPAFMMEMKHVFEDPQRREVAKRKIRRLRQGMGSVIDYSNAFQMIAQDLDWNEPALIDQYHEGLSDHIQEELSHLEVAKSLSALIGQCIHIERRLARAAAARKPRSPPRALVLPHIASHHQVDPTEPVGGARMRLTQEEKERRRKLNLCLYCGTGGHYADNCPAKASKSSPAGNSPAPL”: “soluble”. Turning to “SALTIFSVKDPQNSLWHSTNAEEIQQQLNAKGVRFERWQADRDLGAAPTAETVIAAYQHAIDKLVAEKGYQSWDVISLRADNPQKEALREKFLNEHTHGEDEVRFFVEGAGLFCLHIGDEVFQVLCEKNDLISVPAHTPHWFDMGSEPNFTAIRIFDNPEGWIAQFTGDDIASAYPRLA”, the “soluble on expression in E. coli” value was “soluble”. The same measure for “MGSDKIHHHHHHMTQKESIRLFEERKVRAIWDDEQEEWYFSIVDVISILTDSPNPRKYWSVLKTRLKREGSELTTNCSQLKMQAADGKKYLTDVANTEQLFRLIQSVPSPKAEPFKLWIAQVAKERLDQMQDPELSIEQAMADYKRLGYSDNWINQRLKSIEIRKDLTDEWKKRGLEEGLHFATLTDIIYKSWSDMTSKEYKRFKGLRKENLRDNMTNKELVLNMLAELSTKEISEASEPDTFSEHINVAQQGGEVARNARLELEAKTGKSVISPLNAQKIISLKKGENERDV”: “not soluble”. With “MNTINRNVYPVSGLSTQSVNPDSDGIQPPDVKSGHNSQLIDFSSPQQVNGLQSSLSLSGSRPQVPATRAASDASENPVELLLNKLVEAIRNILKDLLSLFKGDQQQDQAPPPAQTQREQAPSFSQLSQTPSSASPSSPSPSAAPAPAPTPTPTEKPFVVQNDHPADKPVTVQKNTAPTPPDPVQTQDKTSVTAPPKPVAATPAAHPRATTPVTEKPDTEEKVAKPAPRAAHGQGADMSGMIGFAKEANTTGGNNGEVVTVNTVADLKKYMEDDTARTVKLGANLSADSKVSINFGANKTLLGTDKGNSLHNIYLASGKTASNDIFQNLNFTHDSRYRENGDMQMFISSGQKYWIDHITATGTKDQNPKGLDKLLYVGGKADNVSLTNSRFQNNEYGVILGQPDDSADAKAEYKGYPRMTIANNVFSDLDVRAPGLMRHGQFDVFNNSINDFHLGFTATGDATILSQANYFAKGVDVSNKASNSGVLDDYGDAHFKDIGSNVSFTQKSPVTAWTPSYNRDIKTAEAARAYDLANAGAEAVR” the entry was “not soluble”.

Take “MKTADELAKLRRASELITDSMLATIAAARAGSTKLEIIEQLRREETNRGLHFEYCLLTLGASHNRAGSPQAWAEGEILSIDSGGNYHGYIGDLCRMGVLGEPDAELEDLLAEVERIQQAAFAKVRAGVLGSEMIVAAEAELKASPSAAFTDFFCHGMGLITHEAPFLMTNHPVAYEGIDADKPLEAGNVISVETTMLHPKRGFIKLEDTLAITDKGYEMFGDRGRGLEHHHHHH”: the “soluble on expression in E. coli” value is “soluble”. The same measure for “MASSINNRKPSEIFKAQALLYKNMYAFVDSMSLKWSIEMNIPNIIHNHGKPITLSNLVSILQIPSTKVDNVQRLMRYLAHNGFFEIITNQELENEEEAYALTVASELLVKGTELCLAPMVECVLDPTLSTSFHNLKKWVYEEDLTLFAVNLGCDLWEFLNKNPEYNTLYNDALASDSKMINLAMKDCNLVFEGLESIVDVGGGNGTTGKIICETFPKLTCVVFDRPKVVENLCGSNNLTYVGGDMFISVPKADAVLLKAVLHDWTDKDCIKILKKCKEAVTSDGKRGKVIVIDMVINEKKDENQLTQIKLLMNVTISCVNGKERNEEEWKKLFIEAGFQDYKISPFTGLMSLIEIYP”: “soluble”. With “GHMPTKQQLLYEGKAKKIYATDEPDVLWVEYKDSATAFNGEKKATIAGKGRLNNEISSLLFLKLREAGIANHFIEKLSPTEQLVRRVTIIPLEVVVRNVVAGSLAKRIGLEEGTPLEAPLVEFYYKNDDLGDPLLLEDHIFILKLASREEVAALKQAALAVNDVLRLHFAERNVRLIDFKLEFGRTADGAILLADEISPDTCRLWDAKTNEKLDKDVFRRDLGSLTDAYEVILQRLGGESACTK” the entry was “soluble”. On to “MFISCFDMFKIGIGPSSSHTLGPMKAGKAFVDTLEERDLLDRVTRVRADVYGSLSLTGIGHATDKAIIMGLAGFEPETVDIDAMPGFLEIVASLQRLALAGGKKTVDFSRTEGIVFHNTCLQLHENGMTITAFEGDEVLLTKAYFSIGGGFIVDKEHFGLPVEDTAVVPFPYNTAEEVLAHCDREGMSIPEFAWRNEVAANGEEAVREHLAKVWKVMQSGIERGSSAEGILPGDLRVPRRAKALRERLEATSENEPLRMMSWLNMFAMAVNEENASGGRVVTSPTNGACGVLPAVLSYWDRLVKPVGEQEVIDYLLTCGVVGALYKKNASISGAEVGCQGEVGVACSMAAAGIAQLMGATPAQAFAAAEIAMEHNLGLTCDPVCGQVQVPCIERNAIAAVTSVNAANMSLQRGSTPTVSLDQVIQTMYQTGKDMDSKYRETSLGGLAKVLMPRLMPCS”, for which the “soluble on expression in E. coli” value is “not soluble”. The same measure for “MSLNNMIQVAIIGAGFIGPAHLEALRRLGDVEVVALCDSRLEAAQRKARALNIAHAYDSVEALLAHPGLQVVHNCTPNHLHAQINRQILAAGLHVFSEKPLCMTAGEARELVALAARAGVVHGVSFVYRQFAMVQQAAAMIRHGEVGRIFAAHGSYLQDWMLLETDYNWRVDSAQGGASRTVADIGSHWCDTVQFMTGRRIVEVMADLSIVWPTRKAPVNGKATFSAVHEAQAYETRPVDTEDFGSVLLRFDDGSKGSFMVSQVSAGRKNRLAVEINGSLCSLAWDQEVPQRLWIGHREQPDRLLSDDPSLLRPEIADSAHYPGGHIEGWPDAFKNMMGHFYQAVRAGKMPAAGARRFAAFDDGADVMYIIEAIVKSHQEQRWVSVEREGHHHHHH”: “soluble”; for “MLKGEDIGIDLGTASVLIYVRGKGIVLKEPSVIAVVQGKREVKAVGAEAYRMLGRTPGNIVAVRPLKDGVIADYALTEKMLLLFLQKVLSPMSRLFKGRVRIMVGVPSGVTDVERRAVVQAVSTLAHKVYLIEEPLAAAIGAGINVAEPTGSMVVDIGGGSTDIAVISLGGIVRSESLRIAGNEMDQAIILHIRQKYNLLIGERTAEELKIRLGRAKLLPGEEKEVAEVRGRDLLTGLPRTAEIPAEDIVEALQEPLSKIFQGVRNVLESTPPELASDIYERGILLTGGGALLRNLDVALQKATGVPVVVTENPIEAVALGTGKALEMLHVLEDTILSSDDVLRR”: “soluble”.

The values above are taken from the DeepSol protein solubility set.
